Measurements taken from patent US10669350B2, “Antigen-binding constructs that bind to and inhibit catalase and/or superoxide dismutase as well as pharmaceutical compositions containing them for tumor therapy” (priority 2015, dated 2020).
“Also recorded” adds a separate entry of the source. Blank lines part the entries; values can stand above or below the molecule they belong to.

How the values were obtained:
[1] = system: MKN-45 gastric carcinoma cells; experiment: Standard preparation for autocrine ROS-controlled apoptosis induction in tumor cells (percentage of apoptotic cells); type: cell-based, human; details: for apoptosis induction in MKN-45 cells: increasing concentrations, 3-4 hours at 37° C., 5% CO2
Experimental: (§1) The experiments shown in FIG. 13-24 were carried out with a standard preparation for the apoptosis induction that is based on the method performed in Heinzelmann and Bauer 2010. The tumor cells used were taken from an optimally growing semi-sealed culture, centrifuged and placed in fresh medium. The test was performed in 96-well cell culture plates with 12 500 MKN-45 cells/100 μl medium or 10 000 SHEP cells/100 μl medium. MKN-45 cells grow in suspension, SHEP cells are adherent. The tests with SHEP cells were started as soon as the cells had grown on. By adding increasing concentrations of single domain VHH fragments that either inhibit catalase or SOD the protection of the tumor cells from their own ROS signaling was annulled so that based on the cell-owned extracellular superoxide anion production the NO/peroxynitrite signal path and the HOCl path (with MKN-45 cells) or in case of the SHEP cells only the NO/peroxynitrite path could start when the cells were incubated at 37° C. The analysis of the signal paths was carried out by the application of inhibitors of the NADPH oxidase (AEBSF), the HOCl scavenger taurine, the peroxynitrite scavenger FeTPPS and the singlet oxygen scavenger histidine. In some experiments for comparison instead of the single domain VHH fragments either recombinant Fab fragments or monoclonal antibodies were applied. This is indicated in the respective illustrations.
Double preparations were examined at the times shown in the text by means of phase contrast reverse microscopy for the percentage of apoptotic cells. Here, the classical apoptosis criteria described and documented in Heinzelmann and Bauer 2010 such as condensation of the nucleus, fragmentation of the nucleus, and membrane blebbing were used. Per single preparation at least 250 randomly selected cells were examined for the presence of apoptosis features. […]

[2] = target: T1, human catalase (Homo sapiens, UniProt P04040); experiment: Check for inhibition (neutralization) of catalase, expressed as ROS-dependent apoptosis induction in cell culture system; type: cell-based; set-up: catalase-neutralizing single domain VHH fragments only neutralize the membranous catalase of tumor cells; endogenous in cells; host or cells: MKN-45 human gastric carcinoma cells
T1 sequence (P04040 2-527 limits assumed): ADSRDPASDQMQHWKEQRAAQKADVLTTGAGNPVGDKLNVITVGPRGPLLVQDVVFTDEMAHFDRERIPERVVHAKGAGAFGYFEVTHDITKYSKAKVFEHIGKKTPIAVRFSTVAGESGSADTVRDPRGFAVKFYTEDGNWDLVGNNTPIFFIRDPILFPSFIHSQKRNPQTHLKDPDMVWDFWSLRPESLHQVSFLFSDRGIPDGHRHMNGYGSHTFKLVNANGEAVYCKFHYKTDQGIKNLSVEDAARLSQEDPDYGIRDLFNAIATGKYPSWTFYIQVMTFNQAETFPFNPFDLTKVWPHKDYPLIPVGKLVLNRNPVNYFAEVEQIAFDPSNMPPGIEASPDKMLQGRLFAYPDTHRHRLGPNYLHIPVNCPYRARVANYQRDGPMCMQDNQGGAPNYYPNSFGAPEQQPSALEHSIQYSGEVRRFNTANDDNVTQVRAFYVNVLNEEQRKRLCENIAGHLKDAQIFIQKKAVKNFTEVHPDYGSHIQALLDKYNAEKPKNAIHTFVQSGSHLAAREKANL
Excerpt: For the determination of the neutralizing effect of single domain VHH or Fab fragments directed against catalase a test system is suitable that is based on the apoptosis-inducing effect of H2O2 and the degradation of H2O2 by catalase. Here, as the cellular test system both non-malignant and malignant cells can be employed. It is only required that apoptosis induction is quantitatively determinable in the selected cell system. As the H2O2 source, H2O2-generating glucose oxidase (GOX) is preferred over the direct addition of H2O2, because the continuous production of H2O2 by GOX (by using glucose from the culture medium of the cells) allows a very precise adjustment of the H2O2 flux. The test system is based on the inhibition of the apoptosis induction by GOX mediated by catalase and the restoration of the apoptosis induction by catalase-neutralizing single domain VHH or Fab fragments. […] For that, in general depending on the cell system, GOX concentrations between 0.1 and 40 mU/ml are required. In a second step, the concentration of human catalase is determined that is just sufficient to abolish the effect achieved by GOX. […] After successful determination of the suitable concentrations of GOX and catalase then the actual experiment for the determination of the catalase-neutralizing effect of single domain VHH or Fab fragments can be performed. For that, the selected catalase concentration is pre-incubated for 20 minutes with selected concentrations of the single domain VHH or Fab fragments to be tested. Subsequently, said mixture together with the concentration of GOX determined to be suitable is added to the cells and apoptosis induction is measured. A reliable neutralizing effect of the single domain VHH or Fab fragments is obtained if the inhibiting effect of the catalase on the GOX-mediated apoptosis induction was abolished by at least 90%, i.e. if 90% of the apoptosis induction value is achieved that is shown in control preparations without addition of catalase. If there is achieved an abolition of the inhibiting effect of catalase of at least 50% there may be assumed a significant inhibiting effect of the tested single domain VHH or Fab fragment. […]
[…] In a second run, by employing the cell culture system described by Heinzelmann and Bauer (Heinzelmann S. and Bauer G. Multiple protective functions of catalase against intercellular apoptosis-inducing ROS signaling of human tumor cells, Biol. Chem. 391, 675-693, 2010) it was checked which one of the single domain VHH fragments binding to catalase actually results in an inhibition of the catalase, what is expressed as ROS-dependent apoptosis induction in the cells. […] The clones underlying the single domain VHH fragments were sequenced by standard methods and the amino acid sequence was determined therefrom.

[3] = target: T1, human catalase; experiment: ELISA selection of clones binding to human catalase
Excerpt: […] […] In a second run, by employing the cell culture system described by Heinzelmann and Bauer (Heinzelmann S. and Bauer G. Multiple protective functions of catalase against intercellular apoptosis-inducing ROS signaling of human tumor cells, Biol. Chem. 391, 675-693, 2010) it was checked which one of the single domain VHH fragments binding to catalase actually results in an inhibition of the catalase, what is expressed as ROS-dependent apoptosis induction in the cells. […] The clones underlying the single domain VHH fragments were sequenced by standard methods and the amino acid sequence was determined therefrom.

[4] = system: human neuroblastoma line SHEP; experiment: Standard preparation for apoptosis induction in SHEP cells (percentage of apoptotic cells); type: cell-based
Experimental: as §1
Double preparations were examined at the times shown in the text by means of phase contrast reverse microscopy for the percentage of apoptotic cells. Here, the classical apoptosis criteria described and documented in Heinzelmann and Bauer 2010 such as condensation of the nucleus, fragmentation of the nucleus, and membrane blebbing were used. Per single preparation at least 250 randomly selected cells were examined for the presence of apoptosis features.
10 000 cells of the human neuroblastoma line SHEP per 100 μl medium were mixed with the given concentrations of the catalase-neutralizing single domain VHH fragment aCATcb0972, the SOD-neutralizing single domain VHH fragment aSOD0989, the SOD-binding but not neutralizing single domain VHH fragment aSODcb991 and the hybrid molecule aCATaSOD and incubated for 5 hours at 37° C., 5% CO2, before percentages of apoptotic cells were determined.
10 000 cells of the human neuroblastoma line SHEP per 100 μl medium were mixed with the given concentrations of the SOD-neutralizing single domain VHH fragment aSOD0989. Parallel preparations received 20 μM or 100 μM of the NO donor sodium nitroprusside or were incubated without a further additive. After 5 hours at 37° C., 5% CO2 the percentages of apoptotic cells were determined.

[5] = Table 2, FIG. 20 experiment, 3.5 hours

Molecule: CC(=O)O[C@H]1C(=O)[C@@]2(C)[C@H]([C@H](OC(=O)c3ccccc3)[C@]3(O)C[C@H](OC(=O)[C@H](O)[C@@H](NC(=O)c4ccccc4)c4ccccc4)C(C)=C1C3(C)C)[C@]1(OC(C)=O)CO[C@@H]1C[C@@H]2O [taxol, reference compound]
- displacement of the required taxol concentration by neutralizing single domain VHH fragments ([1]; 4 hours): less than a thousandth
- optimum effect concentration of taxol alone ([1]; 4 hours): 1100 ng/mL
- apoptosis induction in MKN-45 cells [1]: induces apoptosis in the tumor cells in a concentration-dependent manner

B1: monoclonal aCAT: neutralizing conventional monoclonal antibody against catalase (Sigma) as a control (protein)
VHH: MAQVQLVESGGGLVQAGGSLRLSCAASERTFNTYGMGWFRQAPGKEREFVATISWSGDSTYYADSVKGRFTISRDNAKNTMYLQMNSLKPEDTAVYYCNANSEYGDSYWGQGTQVTVSSKKKHHHHHH
- optimum effect concentration (text, FIG. 20) ([1]; 3.5 hours): 111 ng/mL
- relation to opt. conc. single domain Fab ([1]; Table 1, concentration basis, versus the corresponding single domain VHH): 277 500
- optimum conc. ([1]; Table 1, concentration necessary for optimum apoptosis induction, taken from FIGS. 13A, 13B, 15A, 15B, 20): 111 ng/mL
- relation (molar basis) ([1]; Table 1, versus the corresponding single domain VHH): 46 250
- optimum conc. [1, 5]: 111 ng/mL
- relation to opt. conc. hybrid Fab ([1]; Table 2, concentration basis, versus hybrid aCATaSOD): 4.6 × 10^8
- relation (molar basis) ([1]; Table 2, versus hybrid aCATaSOD): 1.54 × 10^8

B4: aCATaSOD: bispecific hybrid single domain VHH fragment of cb 0972 and cb 0989 connected via a linker; SEQ ID NO: 17 (protein)
VHH: MAQVQLVESGGGLVQAGGSLRLSCAASERTFNTYGMGWFRQAPGKEREFVATISWSGDSTYYADSVKGRFTISRDNAKNTMYLQMNSLKPEDTAVYYCNANSEYGDSYWGQGTQVTVSSGGGGSGGGGSGGGGSAQVQLVESGGGLVQSGGSLTLSCTASGFTISNYPMTWVRQAPGKGLEWVSRINSGGDRTLYADSVKGRFTVSRDNARNTMYLQMNNLKPEDTGLYFCADSGAGWRYWGQGTQVTVSSKKKHHHHHH
modifications: bispecific
- apoptosis induction after siRNA-mediated knockdown of FAS receptor or caspase-8 ([1]; 24 nM siRNA, four hours): does not require the FAS receptor and its downstream caspase-8; also recorded: prevents the supra-optimum drop of the apoptosis induction curve
- apoptosis induction after siRNA-mediated knockdown of NOX1, iNOS2 or caspase-9 ([1]; 24 nM siRNA, four hours): completely prevents the apoptosis induction
- apoptosis induction in the presence of peroxynitrite scavenger FeTPPS ([1]; 25 μM FeTPPS): complete inhibition by FeTPPS
- apoptosis induction in the presence of NOX1 inhibitor AEBSF ([1]; 100 μM AEBSF): completely prevented
- apoptosis induction in the presence of singlet oxygen scavenger histidine ([1]; 2 mM histidine): attenuating effect on the right-side drop of the optimum curve
- apoptosis induction in the presence of HOCl scavenger taurine ([1]; 50 mM taurine): no inhibition by taurine
- optimum conc. [1, 5]: 2.4e-07 ng/mL
- apoptosis induction in MKN-45 cells [1]: gradually superior over the reverse arrangement
- ROS signaling path induced ([1]; inhibitor analysis): exclusively the NO/peroxynitrite path
- efficacy compared with single domain VHH fragments directed against one target structure ([4]; 5 hours): much more effective
- apoptosis induction in SHEP cells ([4]; 5 hours at 37° C., 5% CO2): can induce concentration-dependent apoptosis

Other lines, results leading:

- neutralization (inhibition) of human catalase [2]: do not neutralize it
- binding to human catalase [3]: bind to human catalase
B2: aCATcb0975: single domain VHH fragment binding to human catalase, but not neutralizing; SEQ ID NO: 13 (protein)
VHH: MAQVQLVESGGGLVQPGGSLRLSCAASASIFSIYVMAWYRQAPGKQRELVATVTSGGATNYANSVKGRFTISRDNAKNTMDLQMNSLKPEDTAVYYCNAEDYYDYGLSRSKIYWGQGTQVTVSSKKKHHHHHH
modifications: catalase binding

- neutralization (inhibition) of human catalase [2]: neutralize it
- binding to human catalase [3]: bind to human catalase
B3: aCATcb0974: single domain VHH fragment that binds to and neutralizes human catalase; SEQ ID NO: 12 (protein)
VHH: MAQVQLVESGGGLVQPGGSLRLSCAASGSIFSIASMGWYRQAPGKQRDLVATITSDGSTKYADSVKGRFTISRDNAKNTMYLQMNSVKPEDAAVYYCNADADDLEPGSYDYDYWGQGTQVTVSSKKKHHHHHH
modifications: catalase binding

- neutralization (inhibition) of human catalase [2]: do not neutralize it
- binding to human catalase [3]: bind to human catalase
B5: aCATcb0973: single domain VHH fragment binding to human catalase, but not neutralizing; SEQ ID NO: 11 (protein)
VHH: MAEVQLVESGGGLVQPGGSLRLSCAVSGFIFNTYSMRWGRQAPGKGLEWVSSISTGGYSTYADSVKGRFTISRDNAKNLVYLQMNSLKPEDTAVYYCGWGAFVRGERPQGQGTQVTVSSKKKHHHHHH
modifications: catalase binding
